Each block holds one molecule with its values, some of them ahead of it.
Assays:
[1] = biological target: Sla2 IDR-CC-mScarlet (IDR, coiled-coil and REND regions) (S. cerevisiae) (UniProt P33338)
[2] = biological target: Sla2 IDR-CC-mScarlet (IDR, coiled-coil and REND regions) (S. cerevisiae) (UniProt P33338); remark: listed apart in the source

UniProt P33338, sequence (P33338 261-746): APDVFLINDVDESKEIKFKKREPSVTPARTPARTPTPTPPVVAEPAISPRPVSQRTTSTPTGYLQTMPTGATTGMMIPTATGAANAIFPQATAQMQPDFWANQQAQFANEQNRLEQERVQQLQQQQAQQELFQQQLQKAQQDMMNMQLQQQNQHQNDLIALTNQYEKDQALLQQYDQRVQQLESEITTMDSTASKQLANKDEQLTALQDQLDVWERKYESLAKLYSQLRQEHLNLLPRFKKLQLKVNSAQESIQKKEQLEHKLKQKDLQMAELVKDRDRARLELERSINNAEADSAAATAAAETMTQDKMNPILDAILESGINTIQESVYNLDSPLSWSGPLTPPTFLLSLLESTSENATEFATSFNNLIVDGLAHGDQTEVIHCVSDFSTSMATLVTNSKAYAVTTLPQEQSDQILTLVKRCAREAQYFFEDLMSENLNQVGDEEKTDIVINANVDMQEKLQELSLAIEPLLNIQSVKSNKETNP

ID/IS of Clathrin (green channel) with Sla2 IDR-CC-mScarlet droplets, 2.5% (w/v) PEG 8000 [1]: 3.6
ID/IS of Sla2 IDR-CC-mScarlet (magenta channel) in the presence of Clathrin, 2.5% (w/v) PEG 8000 [1]: 6.9
Molecule: "Clathrin" construct: full-length CLC and CHC distal leg (residues 1172-1572) heterodimer conjugated to mNeonGreen (from UniProt P17891 1-233; P22137 1172-1572) (complex)

ID/IS of 20 µM Sla2 IDR-CC when mixed with 45 µM Ede1 IDR-CC (4.7 for Sla2 IDR-CC alone), 2.5% (w/v) PEG 8000 [2]: 7.8
droplet-to-solution intensity ratio (ID/IS) of 5 µM Ede1 IDR-CC in condensates of 20 µM Sla2 IDR-CC, 2.5% (w/v) PEG 8000 [2]: 4
B1: Ede1 IDR-CC (residues 366-900) tagged with mEGFP (domain or fragment)
chain: GLYPPNPLPQQQSAPQIAIPSRASKPSLQDMPHQVSAPAVNTQPTVPQVLPQNSNNGSLNDLLALNPSFSSPSPTKAQTVVQNNTNNSFSYDNNNGQATLQQQQPQQPPPLTHSSSGLKKFTPTSNFGQSIIKEEPEEQEQLRESSDTFSAQPPPVPKHASSPVKRTASTTLPQVPNFSVFSMPAGAATSAATGAAVGAAVGAAALGASAFSRSSNNAFKNQDLFADGEASAQLSNATTEMANLSNQVNSLSKQASITNDKKSRATQELKRVTEMKNSIQIKLNNLRSTHDQNVKQTEQLEAQVLQVNKENETLAQQLAVSEANYHAAESKLNELTTDLQESQTKNAELKEQITNLNSMTASLQSQLNEKQQQVKQERSMVDVNSKQLELNQVTVANLQKEIDGLGEKISVYLTKQKELNDYQKTVEEQHAQLQAKYQDLSNKDTDLTDREKQLEERNRQIEEQENLYHQHVSKLQEMFDDLSQRKASFEKADQELKERNIEYANNVRELSERQMNLAMGQLPEDAKDIIAKSAS
